# Data reported in article PMC5995566 (Biochemistry, 2017).
# T1: human S100A5 (human)
# T1 sequence (P33763 1-92, looked up): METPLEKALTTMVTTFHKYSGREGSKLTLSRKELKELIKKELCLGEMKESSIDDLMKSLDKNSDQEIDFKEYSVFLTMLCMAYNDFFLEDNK
# Target: T1, human S100A5
# Assay: ITC
binder,measurement,value
RRLLFYKYVYKR [12 amino acid fragment of the protein NCX1],Kd,18 ± 4 µM
same,dH,-3.6 ± 1 kcal/mol
